# Measurements reported in patent US20260049138A1 (Chugai, published 2026).
# Changes are numbered by the printed parent chain. Numbers in names are those of the source.
# B1: GLS3000 N53T one-arm antibody (antibody, human IgG1, kappa, L234A L235A, N297A, name in Kabat numbering)
# heavy: QVQLVESGGGVVQPGRSLRLSCAASGFTFSNAWMHWVRQAPGKGLEWVAQIKAKSNNYATYYAESVKGRFTISRDDSKNSLYLQMNSLKTEDTAVYYCRYVHYGAYYGVDAWGQGTTVTVSSASTKGPSVFPLAPSSKSTSGGTAALGCLVKDYFPEPVTVSWNSGALTSGVHTFPAVLQSSGLYSLSSVVTVPSSSLGTQTYICNVNHKPSNTKVDKKVEPKSCDKTHTCPPCPAPEAAGGPSVFLFPPKPKDTLMISRTPEVTCVVVDVSHEDPEVKFNWYVDGVEVHNAKTKPREEQYASTYRVVSVLTVLHQDWLNGKEYKCKVSNKALPAPIEKTISKAKGQPREPQVYTLPPSRCELTKNQVSLSCAVKGFYPSDIAVEWESNGQPENNYKTTPPVLDSDGSFFLVSKLTVDKSRWQQGNVFSCSVMHEALHNHYTQKSLSLSPDYKDDDDK
# chain: EPKSSDKTHTCPPCPAPELLGGPSVFLFPPKPKDTLMISRTPEVTCVVVDVSHEDPEVKFNWYVDGVEVHNAKTKPREEQYNSTYRVVSVLTVLHQDWLNGKEYKCKVSNKALPAPIEKTISKAKGQPREPQVCTLPPSRDELTKNQVSLWCLVKGFYPSDIAVEWESNGQPENNYKTTPPVLDSDGSFFLYSKLTVDKSRWQQGNVFSCSVMHEALHNRYTQKSLSLSP
# light: DIVMTQSPLSLPVTPGEPASISCRSSQSLVHSNRNTYLHWYQQKPGQAPRLLIYKVSTRFSGVPDRFSGSGSGTDFTLKISRVEAEDVGVYYCGQGTQVPYTFGQGTKLEIKRTVAAPSVFIFPPSDEQLKSGTASVVCLLNNFYPREAKVQWKVDNALQSGNSQESVTEQDSKDSTYSLSSTLTLSKADYEKHKVYACEVTHQGLSSPVTKSFNRGEC
# B2: GLS3000 Q27R one-arm antibody (antibody, human IgG1, kappa, L234A L235A, N297A, name in Kabat numbering)
# heavy: B1 heavy
# chain: B1 chain
# light: B1 light with Q27R, T58N
# B3: GLS3000 Q90E one-arm antibody (antibody, human IgG1, kappa, L234A L235A, N297A, name in Kabat numbering)
# heavy: B1 heavy
# chain: B1 chain
# light: B1 light with T58N, Q95E
# B4: GLS3000 Q27P one-arm antibody (antibody, human IgG1, kappa, L234A L235A, N297A, name in Kabat numbering)
# heavy: B1 heavy
# chain: B1 chain
# light: B1 light with Q27P, T58N
# B5: GLS3000 Q27E one-arm antibody (antibody, human IgG1, kappa, L234A L235A, N297A, name in Kabat numbering)
# heavy: B1 heavy
# chain: B1 chain
# light: B1 light with Q27E, T58N
# B6: GLS3000 P95D one-arm antibody (antibody, human IgG1, kappa, L234A L235A, N297A, name in Kabat numbering)
# heavy: B1 heavy
# chain: B1 chain
# light: B1 light with T58N, P100D
# B7: GLS3000 Q93E one-arm antibody (antibody, human IgG1, kappa, L234A L235A, N297A, name in Kabat numbering)
# heavy: B1 heavy
# chain: B1 chain
# light: B1 light with T58N, Q98E
# B8: GLS3000 R24E one-arm antibody (antibody, human IgG1, kappa, L234A L235A, N297A, name in Kabat numbering)
# heavy: B1 heavy
# chain: B1 chain
# light: B1 light with R24E, T58N
# B9: GLS3000 Q90S one-arm antibody (antibody, human IgG1, kappa, L234A L235A, N297A, name in Kabat numbering)
# heavy: B1 heavy
# chain: B1 chain
# light: B1 light with T58N, Q95S
# B10: GLS3000 Q93D one-arm antibody (antibody, human IgG1, kappa, L234A L235A, N297A, name in Kabat numbering)
# heavy: B1 heavy
# chain: B1 chain
# light: B1 light with T58N, Q98D
# B11: GLS3000 Q90A one-arm antibody (antibody, human IgG1, kappa, L234A L235A, N297A, name in Kabat numbering)
# heavy: B1 heavy
# chain: B1 chain
# light: B1 light with T58N, Q95A
# B12: GLS3000 N53V one-arm antibody (antibody, human IgG1, kappa, L234A L235A, N297A, name in Kabat numbering)
# heavy: B1 heavy
# chain: B1 chain
# light: B1 light with T58V
# B13: GLS3000 N53W one-arm antibody (antibody, human IgG1, kappa, L234A L235A, N297A, name in Kabat numbering)
# heavy: B1 heavy
# chain: B1 chain
# light: B1 light with T58W
# B14: GLS3000 Q90P one-arm antibody (antibody, human IgG1, kappa, L234A L235A, N297A, name in Kabat numbering)
# heavy: B1 heavy
# chain: B1 chain
# light: B1 light with T58N, Q95P
# B15: GLS3000 P95G one-arm antibody (antibody, human IgG1, kappa, L234A L235A, N297A, name in Kabat numbering)
# heavy: B1 heavy
# chain: B1 chain
# light: B1 light with T58N, P100G
# B16: GLS3000 Q27D one-arm antibody (antibody, human IgG1, kappa, L234A L235A, N297A, name in Kabat numbering)
# heavy: B1 heavy
# chain: B1 chain
# light: B1 light with Q27D, T58N
# B17: GLS3000 Q93R one-arm antibody (antibody, human IgG1, kappa, L234A L235A, N297A, name in Kabat numbering)
# heavy: B1 heavy
# chain: B1 chain
# light: B1 light with T58N, Q98R
# B18: GLS3000 R24A one-arm antibody (antibody, human IgG1, kappa, L234A L235A, N297A, name in Kabat numbering)
# heavy: B1 heavy
# chain: B1 chain
# light: B1 light with R24A, T58N
# B19: GLS3000 P95E one-arm antibody (antibody, human IgG1, kappa, L234A L235A, N297A, name in Kabat numbering)
# heavy: B1 heavy
# chain: B1 chain
# light: B1 light with T58N, P100E
# B20: GLS3000 R24D one-arm antibody (antibody, human IgG1, kappa, L234A L235A, N297A, name in Kabat numbering)
# heavy: B1 heavy
# chain: B1 chain
# light: B1 light with R24D, T58N
# B21: GLS3000 Q90D one-arm antibody (antibody, human IgG1, kappa, L234A L235A, N297A, name in Kabat numbering)
# heavy: B1 heavy
# chain: B1 chain
# light: B1 light with T58N, Q95D
# B22: GLS3000 R24Q one-arm antibody (antibody, human IgG1, kappa, L234A L235A, N297A, name in Kabat numbering)
# heavy: B1 heavy
# chain: B1 chain
# light: B1 light with R24Q, T58N
# B23: GLS3000 Q90Y one-arm antibody (antibody, human IgG1, kappa, L234A L235A, N297A, name in Kabat numbering)
# heavy: B1 heavy
# chain: B1 chain
# light: B1 light with T58N, Q95Y
# B24: GLS3000 Q93A one-arm antibody (antibody, human IgG1, kappa, L234A L235A, N297A, name in Kabat numbering)
# heavy: B1 heavy
# chain: B1 chain
# light: B1 light with T58N, Q98A
# B25: GLS3000 N53Y one-arm antibody (antibody, human IgG1, kappa, L234A L235A, N297A, name in Kabat numbering)
# heavy: B1 heavy
# chain: B1 chain
# light: B1 light with T58Y
# B26: GLS3000 Q93Y one-arm antibody (antibody, human IgG1, kappa, L234A L235A, N297A, name in Kabat numbering)
# heavy: B1 heavy
# chain: B1 chain
# light: B1 light with T58N, Q98Y
# B27: GLS3000 P95A one-arm antibody (antibody, human IgG1, kappa, L234A L235A, N297A, name in Kabat numbering)
# heavy: B1 heavy
# chain: B1 chain
# light: B1 light with T58N, P100A
# B28: GLS3000 Q27L one-arm antibody (antibody, human IgG1, kappa, L234A L235A, N297A, name in Kabat numbering)
# heavy: B1 heavy
# chain: B1 chain
# light: B1 light with Q27L, T58N
# B29: GLS3000 R24G one-arm antibody (antibody, human IgG1, kappa, L234A L235A, N297A, name in Kabat numbering)
# heavy: B1 heavy
# chain: B1 chain
# light: B1 light with R24G, T58N
# B30: GLS3000 Q93P one-arm antibody (antibody, human IgG1, kappa, L234A L235A, N297A, name in Kabat numbering)
# heavy: B1 heavy
# chain: B1 chain
# light: B1 light with T58N, Q98P
# B31: GLS3000 P95L one-arm antibody (antibody, human IgG1, kappa, L234A L235A, N297A, name in Kabat numbering)
# heavy: B1 heavy
# chain: B1 chain
# light: B1 light with T58N, P100L
# B32: GLS3000 R24P one-arm antibody (antibody, human IgG1, kappa, L234A L235A, N297A, name in Kabat numbering)
# heavy: B1 heavy
# chain: B1 chain
# light: B1 light with R24P, T58N
# B33: GLS3000 Q93S one-arm antibody (antibody, human IgG1, kappa, L234A L235A, N297A, name in Kabat numbering)
# heavy: B1 heavy
# chain: B1 chain
# light: B1 light with T58N, Q98S
# B34: GLS3000 P95S one-arm antibody (antibody, human IgG1, kappa, L234A L235A, N297A, name in Kabat numbering)
# heavy: B1 heavy
# chain: B1 chain
# light: B1 light with T58N, P100S
# Molecular target: T1, CD3ε homodimer protein (human, UniProt P07766 23-126, limits assumed)
# T1 construct: also called CD3 (CD3ε)
# Assay: SPR Biacore T200, CD3ε homodimer on chip;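 further: Light-chain single-residue variant antibodies injected over amine-coupled CD3ε homodimer on a CM4 chip at 25 °C, bound amount divided by that of the GLS3000-containing antibody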
# T1 sequence (P07766 23-126 limits assumed): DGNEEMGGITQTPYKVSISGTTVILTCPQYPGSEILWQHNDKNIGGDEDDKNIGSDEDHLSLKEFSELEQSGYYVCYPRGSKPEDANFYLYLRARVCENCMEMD
row,Binder,ratio of amount bound vs unaltered GLS3000
1,B1,0.56
2,B2,1.19
3,B3,0.86
4,B4,0.29
5,B5,0.88
6,B6,0.24
7,B7,0.75
8,B8,0.83
9,B9,0.73
10,B10,0.72
11,B11,0.5
12,B12,0.56
13,B13,0.81
14,B14,0.27
15,B15,0.37
16,B16,0.85
17,B17,1.13

row,Binder,ratio of amount bound vs unaltered GLS3000
1,B18,0.86
2,B19,0.39
3,B20,0.75
4,B21,0.19
5,B22,0.9
6,B23,0.17
7,B24,0.85
8,B25,0.67
9,B26,0.87
10,B27,0.63
11,B28,0.92
12,B29,0.89
13,B30,0.25
14,B31,0.24
15,B32,0.7
16,B33,0.96
17,B34,0.43
